Measurements: US12467929
Each block holds one substance with its values, some of them ahead of it.

Columns and labels:
[1] = target: UBE3A standard protein (ab206157, Abcam) (Homo sapiens (Human)) (UniProt Q05086); test: Singulex sandwich; capture GTX101092; UBE3A 1250 pg/ml
[2] = target: UBE3A standard protein (ab206157, Abcam) (Homo sapiens (Human)) (UniProt Q05086); test: Singulex sandwich; capture GTX101092; UBE3A 2500 pg/ml
[3] = target: UBE3A standard protein (ab206157, Abcam) (Homo sapiens (Human)) (UniProt Q05086); test: Singulex sandwich; capture GTX101092; UBE3A 5000 pg/ml
[4] = target: UBE3A standard protein (ab206157, Abcam) (Homo sapiens (Human)) (UniProt Q05086); test: Singulex sandwich; capture GTX101092; UBE3A 10000 pg/ml
[5] = target: UBE3A standard protein (ab206157, Abcam) (Homo sapiens (Human)) (UniProt Q05086); test: Singulex sandwich; capture GTX101092; UBE3A 312.5 pg/ml
[6] = target: UBE3A standard protein (ab206157, Abcam) (Homo sapiens (Human)) (UniProt Q05086); test: Singulex sandwich; capture GTX101092; UBE3A 9.766 pg/ml
[7] = target: UBE3A standard protein (ab206157, Abcam) (Homo sapiens (Human)) (UniProt Q05086); test: Singulex sandwich; capture GTX101092; UBE3A 156.25 pg/ml
[8] = target: UBE3A standard protein (ab206157, Abcam) (Homo sapiens (Human)) (UniProt Q05086); test: Singulex sandwich; capture GTX101092; UBE3A 19.531 pg/ml
[9] = target: UBE3A standard protein (ab206157, Abcam) (Homo sapiens (Human)) (UniProt Q05086); test: Singulex sandwich; capture GTX101092; UBE3A 39.063 pg/ml
[10] = target: UBE3A standard protein (ab206157, Abcam) (Homo sapiens (Human)) (UniProt Q05086); test: Singulex sandwich; capture GTX101092; UBE3A 78.125 pg/ml
[11] = target: UBE3A standard protein (Abcam, ab125736) (Homo sapiens (Human)) (UniProt Q05086); test: Singulex sandwich; capture GTX10488; interpolated UBE3A ND
[12] = target: UBE3A standard protein (Abcam, ab125736) (Homo sapiens (Human)) (UniProt Q05086); test: Singulex sandwich; capture GTX10488; interpolated UBE3A 3.39 pg/mL
[13] = target: UBE3A standard protein (Abcam, ab125736) (Homo sapiens (Human)) (UniProt Q05086); test: Singulex sandwich; capture GTX10488; interpolated UBE3A 78.6 pg/mL
[14] = target: UBE3A standard protein (Abcam, ab125736) (Homo sapiens (Human)) (UniProt Q05086); test: Singulex sandwich; capture GTX10488; interpolated UBE3A 10.59 pg/mL
[15] = target: UBE3A standard protein (Abcam, ab125736) (Homo sapiens (Human)) (UniProt Q05086); test: Singulex sandwich; capture GTX10488; interpolated UBE3A 31.06 pg/mL
[16] = target: UBE3A standard protein (Abcam, ab125736) (Homo sapiens (Human)) (UniProt Q05086); test: Singulex sandwich; capture GTX10488; interpolated UBE3A 256.41 pg/mL
[17] = target: UBE3A standard protein (Abcam, ab125736) (Homo sapiens (Human)) (UniProt Q05086); test: Singulex sandwich; capture GTX10488; interpolated UBE3A 661.46 pg/mL
[18] = target: UBE3A standard protein (Abcam, ab125736) (Homo sapiens (Human)) (UniProt Q05086); test: Singulex sandwich; capture GTX10488; interpolated UBE3A 2039.33 pg/mL
[19] = target: recombinant UBE3A protein (Homo sapiens (Human)) (UniProt Q05086); test: 2-step Simoa; capture GTX; UBE3A 1 ng/ml
[20] = target: recombinant UBE3A protein (Homo sapiens (Human)) (UniProt Q05086); test: 3-step Simoa; capture GTX; UBE3A 1 ng/ml
[21] = target: recombinant UBE3A protein (Homo sapiens (Human)) (UniProt Q05086); test: 2-step Simoa; capture GTX; UBE3A 10 ng/ml
[22] = target: recombinant UBE3A protein (Homo sapiens (Human)) (UniProt Q05086); test: 3-step Simoa; capture GTX; UBE3A 10 ng/ml
[23] = target: recombinant UBE3A protein (Homo sapiens (Human)) (UniProt Q05086); test: 2-step Simoa; capture GTX; UBE3A 0.1 ng/ml
[24] = target: recombinant UBE3A protein (Homo sapiens (Human)) (UniProt Q05086); test: 2-step Simoa; capture Novus; UBE3A 1 ng/ml
[25] = target: recombinant UBE3A protein (Homo sapiens (Human)) (UniProt Q05086); test: 3-step Simoa; capture GTX; UBE3A 0.1 ng/ml
[26] = target: recombinant UBE3A protein (Homo sapiens (Human)) (UniProt Q05086); test: 3-step Simoa; capture Novus; UBE3A 1 ng/ml
[27] = target: recombinant UBE3A protein (Homo sapiens (Human)) (UniProt Q05086); test: 2-step Simoa; capture Novus; UBE3A 10 ng/ml
[28] = target: recombinant UBE3A protein (Homo sapiens (Human)) (UniProt Q05086); test: 3-step Simoa; capture GTX; UBE3A 0.01 ng/ml
[29] = target: recombinant UBE3A protein (Homo sapiens (Human)) (UniProt Q05086); test: 3-step Simoa; capture Novus; UBE3A 10 ng/ml
[30] = target: recombinant UBE3A protein (Homo sapiens (Human)) (UniProt Q05086); test: 3-step Simoa; capture MS 3E5; UBE3A 1 ng/ml
[31] = target: recombinant UBE3A protein (Homo sapiens (Human)) (UniProt Q05086); test: 2-step Simoa; capture GTX; UBE3A 0.01 ng/ml
[32] = target: recombinant UBE3A protein (Homo sapiens (Human)) (UniProt Q05086); test: 2-step Simoa; capture MS 3E5; UBE3A 1 ng/ml
[33] = target: recombinant UBE3A protein (Homo sapiens (Human)) (UniProt Q05086); test: 2-step Simoa; capture Novus; UBE3A 0.1 ng/ml
[34] = target: recombinant UBE3A protein (Homo sapiens (Human)) (UniProt Q05086); test: 3-step Simoa; capture Novus; UBE3A 0.1 ng/ml
[35] = target: recombinant UBE3A protein (Homo sapiens (Human)) (UniProt Q05086); test: 3-step Simoa; capture MS 3E5; UBE3A 10 ng/ml
[36] = target: recombinant UBE3A protein (Homo sapiens (Human)) (UniProt Q05086); test: 2-step Simoa; capture MS 3E5; UBE3A 10 ng/ml
[37] = target: recombinant UBE3A protein (Homo sapiens (Human)) (UniProt Q05086); test: 2-step Simoa; capture Novus; UBE3A 0.01 ng/ml
[38] = target: recombinant UBE3A protein (Homo sapiens (Human)) (UniProt Q05086); test: 3-step Simoa; capture Novus; UBE3A 0.01 ng/ml
[39] = target: recombinant UBE3A protein (Homo sapiens (Human)) (UniProt Q05086); test: 3-step Simoa; capture MS 3E5; UBE3A 0.1 ng/ml
[40] = target: recombinant UBE3A protein (Homo sapiens (Human)) (UniProt Q05086); test: 2-step Simoa; capture MS 3E5; UBE3A 0.1 ng/ml
[41] = target: recombinant UBE3A protein (Homo sapiens (Human)) (UniProt Q05086); test: 2-step Simoa; capture MS 3E5; UBE3A 0.01 ng/ml
[42] = target: recombinant UBE3A protein (Homo sapiens (Human)) (UniProt Q05086); test: 3-step Simoa; capture MS 3E5; UBE3A 0.010 ng/ml

AvgDE [1]: 4130 DE
AvgDE [2]: 6430 DE
AvgDE [3]: 10700 DE
AvgDE [4]: 12700 DE
AvgDE [5]: 1610 DE
AvgDE [6]: 112 DE
AvgDE [7]: 922 DE
AvgDE [8]: 208 DE
AvgDE [9]: 289 DE
AvgDE [10]: 559 DE
DE S/N [11]: 1
DE Mean [12]: 461 DE
DE S/N [12]: 1.1
EP Mean [12]: 71800 EP
S-N [12]: 13 DE
DE Mean [13]: 1770 DE
DE S/N [13]: 4.3
EP Mean [13]: 291000 EP
S-N [13]: 1170 DE
DE Mean [14]: 585 DE
DE S/N [14]: 1.4
EP Mean [14]: 91300 EP
S-N [14]: 136 DE
DE Mean [15]: 925 DE
DE S/N [15]: 2.3
EP Mean [15]: 143000 EP
S-N [15]: 470 DE
DE Mean [16]: 4910 DE
DE S/N [16]: 11.9
EP Mean [16]: 926000 EP
S-N [16]: 4290 DE
DE Mean [17]: 9340 DE
DE S/N [17]: 22.7
EP Mean [17]: 2.27e+06 EP
S-N [17]: 8460 DE
DE Mean [18]: 13600 DE
DE S/N [18]: 33.1
EP Mean [18]: 5.69e+06 EP
S-N [18]: 13000 DE
Substance: anti-UBE3A antibody H00007337-M02 (AbNova)

AEB1 [19]: 0.0965
AEB2 [19]: 0.095
Ave AEB [19]: 0.0957
Signal to Background [19]: 1.04
AEB1 [20]: 0.0409
AEB2 [20]: 0.0476
Ave AEB [20]: 0.0443
Signal to Background [20]: 1
AEB1 [21]: 0.109
AEB2 [21]: 0.109
Ave AEB [21]: 0.109
Signal to Background [21]: 1.19
AEB1 [22]: 0.047
AEB2 [22]: 0.0463
Ave AEB [22]: 0.0466
Signal to Background [22]: 1.05
AEB1 [23]: 0.0906
AEB2 [23]: 0.0965
Ave AEB [23]: 0.0936
Signal to Background [23]: 1.02
AEB1 [24]: 0.048
AEB2 [24]: 0.0444
Ave AEB [24]: 0.0462
Signal to Background [24]: 0.93
AEB1 [25]: 0.0432
AEB2 [25]: 0.0414
Ave AEB [25]: 0.0423
Signal to Background [25]: 0.96
AEB1 [26]: 0.0277
AEB2 [26]: 0.024
Ave AEB [26]: 0.0259
Signal to Background [26]: 1.08
AEB1 [27]: 0.0475
AEB2 [27]: 0.045
Ave AEB [27]: 0.0462
Signal to Background [27]: 0.92
AEB1 [28]: 0.043
AEB2 [28]: 0.0459
Ave AEB [28]: 0.0445
Signal to Background [28]: 1.01
AEB1 [29]: 0.0249
Ave AEB [29]: 0.0249
Signal to Background [29]: 1.04
AEB1 [30]: 0.009
AEB2 [30]: 0.0088
Ave AEB [30]: 0.0089
Signal to Background [30]: 1.17
AEB1 [31]: 0.0965
AEB2 [31]: 0.0944
Ave AEB [31]: 0.0955
Signal to Background [31]: 1.04
AEB1 [32]: 0.0234
AEB2 [32]: 0.0226
Ave AEB [32]: 0.023
Signal to Background [32]: 1.39
AEB1 [33]: 0.047
AEB2 [33]: 0.0451
Ave AEB [33]: 0.046
Signal to Background [33]: 0.93
AEB1 [34]: 0.0269
AEB2 [34]: 0.0251
Ave AEB [34]: 0.026
Signal to Background [34]: 1.09
AEB1 [35]: 0.0203
AEB2 [35]: 0.0195
Ave AEB [35]: 0.0199
Signal to Background [35]: 2.62
AEB1 [36]: 0.0582
AEB2 [36]: 0.0565
Ave AEB [36]: 0.0574
Signal to Background [36]: 3.46
AEB1 [37]: 0.0511
AEB2 [37]: 0.0431
Ave AEB [37]: 0.0471
Signal to Background [37]: 0.95
AEB1 [38]: 0.0221
AEB2 [38]: 0.0242
Ave AEB [38]: 0.0232
Signal to Background [38]: 0.97
AEB1 [39]: 0.0078
AEB2 [39]: 0.0073
Ave AEB [39]: 0.0075
Signal to Background [39]: 0.99
AEB1 [40]: 0.0191
AEB2 [40]: 0.018
Ave AEB [40]: 0.0186
Signal to Background [40]: 1.12
AEB1 [41]: 0.0177
AEB2 [41]: 0.016
Ave AEB [41]: 0.0168
Signal to Background [41]: 1.01
AEB1 [42]: 0.0052
AEB2 [42]: 0.0068
Ave AEB [42]: 0.006
Signal to Background [42]: 0.792
Substance: 2F6 (WH0007337M1-100 ug, Millipore-Sigma) (antibody)
